Patent US20180355049A1 (CANTARGIA, published 2018)

T1: human IL1RAP on cells (KU812, LAMA-84, HEK-Blue IL-33/IL-1β cells) (human, UniProt Q9NPH3 21-570)
T1 sequence (looked up): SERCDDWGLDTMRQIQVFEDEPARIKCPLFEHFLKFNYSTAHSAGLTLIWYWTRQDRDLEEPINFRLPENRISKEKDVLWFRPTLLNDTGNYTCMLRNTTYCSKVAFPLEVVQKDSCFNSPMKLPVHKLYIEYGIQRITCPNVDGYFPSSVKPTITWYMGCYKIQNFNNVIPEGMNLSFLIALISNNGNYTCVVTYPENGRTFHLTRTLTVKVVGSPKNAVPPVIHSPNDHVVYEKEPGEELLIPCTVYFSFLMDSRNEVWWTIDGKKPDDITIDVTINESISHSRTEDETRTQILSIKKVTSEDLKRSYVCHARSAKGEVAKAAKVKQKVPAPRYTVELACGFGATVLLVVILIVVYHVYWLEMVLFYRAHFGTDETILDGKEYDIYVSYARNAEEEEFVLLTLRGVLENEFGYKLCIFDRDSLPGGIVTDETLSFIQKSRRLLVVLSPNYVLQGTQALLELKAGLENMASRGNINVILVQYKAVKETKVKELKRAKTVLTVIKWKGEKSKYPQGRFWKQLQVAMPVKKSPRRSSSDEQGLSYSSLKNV

T2: IL1RAP protein (analyte of the Biacore study, Example A(i)) (human, UniProt Q9NPH3 21-367, limits assumed)
T2 construct: also called the analyte; human IL1RAP
T2 sequence (looked up): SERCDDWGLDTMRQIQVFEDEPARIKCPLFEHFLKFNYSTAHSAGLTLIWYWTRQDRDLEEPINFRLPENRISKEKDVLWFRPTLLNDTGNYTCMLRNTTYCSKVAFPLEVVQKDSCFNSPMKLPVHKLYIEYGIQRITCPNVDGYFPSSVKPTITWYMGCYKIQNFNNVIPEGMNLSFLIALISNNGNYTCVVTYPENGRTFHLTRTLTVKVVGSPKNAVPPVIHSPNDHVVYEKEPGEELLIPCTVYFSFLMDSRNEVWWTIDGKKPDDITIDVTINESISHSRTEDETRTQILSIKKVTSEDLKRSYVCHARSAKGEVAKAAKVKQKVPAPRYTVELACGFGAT

B1: CAN03 (antibody, V domains shown)
VH: DVKLVESGGGLVKPGGSLKLSCAASGFTFSIYTMSWVRQTPEKRLEWVATISIGGSYINYPDSVKGRFTISRDNAKNTLYLQMSSLKSEDTAIYYCSREVDGSYAMDYWGQGTSVTVSS
VL: DILLTQSPAILSVSPGERVSFSCRASQSIGTSIHWYQRRTNGSPRLLIKSASESISGIPSRFSGSGSGTDFTLSINSVESEDIADYYCQQSNSWPTTFGAGTKLELKR
notes: Murine-derived monoclonal anti-IL1RAP antibody; also called CAN03-AF488 (AlexaFluor488-labelled form)
B2: CAN01 (antibody, V domains shown)
VH: QVQLQQSGTELMKPGASVKISCKATGYTVSSYWIDWVKQTPGHGLEWIGEILPGSAINNYNEKFKGKATFTADTSSNTAYMQLSSLTSEDSAVYYCASGDYFDSTFVYYWGQGTTLTVSS
VL: DVLMTQTPLSLPVSLGDQASISCRSSQSIVHSNGNTYLEWYLQKPGQSPKLLIYKVSNRFSGVPDRFSGSGSGTDFTLKISRVEAEDLGVYYCFQGSHVPRTFGGGTKLEIKR
notes: Murine-derived monoclonal anti-IL1RAP antibody; also called CAN01-AF488 (AlexaFluor488-labelled form)

What was measured:
[1] = target: T1, human IL1RAP on cells (KU812, LAMA-84, …); test: cell-based or functional assay
[2] = target: T1, human IL1RAP on cells (KU812, LAMA-84, …); test: cell-based or functional assay; remark: listed apart in the source
[3] = target: T2, IL1RAP protein (analyte of the Biacore …); test: SPR, BIAcore T200, antibody captured by anti-mouse IgG, analyte 100 nM, 25 C
Procedure: Goat anti-mouse IgG was immobilized on a CM5 chip according to the technical manual of capture kit and standard operation principle of BIAcore T200 (Biacore Life Sciences, GE Healthcare Europe GmbH, Uppsala, Sweden).
The capture molecule surface was regenerated after each binding cycle using the manufacturer's recommended conditions.
After five cycles of start-up, each antibody (100 nM) was injected at a flow rate of 30 μl/min, for 120 s, at the start of the cycle; then the analyte (100 nM) was injected at a flow rate of 30 μl/min, for 120 s, followed by monitoring the dissociation phase for 300 s.

| Binder | EC50, murine IL-1 alpha-stimulated HEK-Blue IL-33/IL-1β cells [1] | EC50, murine IL-1 beta-stimulated HEK-Blue IL-33/IL-1β cells [1] | EC50, murine IL-33-stimulated HEK-Blue IL-33/IL-1β cells [1] | IC50, murine IL-1 alpha-stimulated HEK-Blue IL-33/IL-1β cells [1] | IC50, murine IL-1 beta-stimulated HEK-Blue IL-33/IL-1β cells [1] | IC50, murine IL-33-stimulated HEK-Blue IL-33/IL-1β cells [1] | EC50, human IL-1α-stimulated HEK-Blue IL-33/IL-1β cells [2] | EC50, human IL-1β-stimulated HEK-Blue IL-33/IL-1β cells [2] | EC50, human IL-33-stimulated HEK-Blue IL-33/IL-1β cells [2] | IC50, human IL-1α-stimulated HEK-Blue IL-33/IL-1β cells [2] | IC50, human IL-1β-stimulated HEK-Blue IL-33/IL-1β cells [2] | IC50, human IL-33-stimulated HEK-Blue IL-33/IL-1β cells [2] | Kd [3] | koff [3] | kon [3] |
| --- | --- | --- | --- | --- | --- | --- | --- | --- | --- | --- | --- | --- | --- | --- | --- |
| B1 | 2.9 nM | 1.56 nM | 4.01 nM | 5 nM | 1.59 nM | 4.12 nM | 37.6 nM | 10.5 nM | 30.5 nM | 37.3 nM | 10.1 nM | 30.4 nM | 0.321 nM | 7.25e-05 s⁻¹ | 226000 M⁻¹ s⁻¹ |
| B2 | 84.2 nM | > 100 nM | > 100 nM | 81.7 nM | 50 nM | > 100 nM | – | – | – | – | – | – | 1.43 nM | 0.000335 s⁻¹ | 234000 M⁻¹ s⁻¹ |
